Test in all cases: cell-based or functional assay
Experiment [1] addresses T1, human glucagon receptor (human, UniProt P47871 26-477).
The target in experiment [2] is T1, human glucagon receptor. The source holds these as a separate data set.
The target in experiment [3] is T1, human glucagon receptor. The source holds these as a separate data set.
Experiment [4] concerns the target T1, human glucagon receptor. This is another data set of the same source.
Experiment [5] has as its target T1, human glucagon receptor. This is another data set of the same source.
For experiment [6], the target named is T1, human glucagon receptor. The source holds these as a separate data set.

Values joined by “and” are separate entries in the source; they are usually repeats but may differ in a detail not shown here. Equal entries are not always repeated. Where two headings read alike, the source gives them in different places. Square brackets hold non-standard residues; d marks the D form. Primed or numbered codes have the meaning given here. Ends that are not written are not given here. mPEG‑MAL 20 kDa = maleimido methoxyPEG of about 20 kDa, linked to the Cys sulfur; mPEG‑MAL 5 kDa = maleimido methoxyPEG of about 5 kDa, linked to the Cys sulfur; Abu(4-SO3H) = N[C@@H](CCS(=O)(=O)O)C(=O)O; PhLac = O=C(O)[C@@H](O)Cc1ccccc1; Aad = N[C@@H](CCCC(=O)O)C(=O)O; CH2CH2COOH′ = not defined here

T1 sequence (P47871 26-477): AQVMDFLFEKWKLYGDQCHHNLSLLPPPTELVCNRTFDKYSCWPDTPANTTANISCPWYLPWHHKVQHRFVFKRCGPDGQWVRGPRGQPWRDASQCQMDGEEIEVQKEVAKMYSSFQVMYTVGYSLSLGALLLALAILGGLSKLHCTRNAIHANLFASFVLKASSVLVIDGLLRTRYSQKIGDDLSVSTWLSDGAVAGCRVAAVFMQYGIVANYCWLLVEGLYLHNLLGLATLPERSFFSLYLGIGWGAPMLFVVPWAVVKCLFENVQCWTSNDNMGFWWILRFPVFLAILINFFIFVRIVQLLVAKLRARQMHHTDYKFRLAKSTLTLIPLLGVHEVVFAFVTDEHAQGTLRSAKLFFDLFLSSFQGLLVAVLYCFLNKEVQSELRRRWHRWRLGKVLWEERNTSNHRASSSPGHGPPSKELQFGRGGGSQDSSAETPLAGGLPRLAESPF

As for “Oxyntomodulin C24 (from UniProt P01275 53-89) (peptide)”, the cAMP Induction EC50 with human glucagon receptor [1] turned out to be 2.54 nM.

In the experiment with human glucagon receptor [1], “Oxyntomodulin C24 PEG 20 K (from UniProt P01275 53-89) (peptide)” yielded a cAMP Induction EC50 of 0.97 nM.

Molecule “Oxyntomodulin (from UniProt P01275 53-89) (peptide)” had a cAMP Induction EC50 with human glucagon receptor [1] of 3.25 nM.

In turn, “[d-Cys5(20kDaPEG), E9]Glucagon(aa5-29) -NH2 (peptide)” returned an IC50 (nM) (cAMP, inhibit 0.2 mM Glucagon) in the experiment with human glucagon receptor [1] of 14800 nM.

For the molecule [PhLac]TC(mPEG‑MAL 5 kDa)EYSKYLDSRRAQDFVQWLMNT-NH2 [[PLA6, C8(5kDaPEG), E9]Glucagon(aa6-29) -NH2], the “IC50 (nM) (cAMP, inhibit 0.2 mM Glucagon)” value with human glucagon receptor [2] turned out to be 216 nM.

B1: [hGlu^9]Glucagon(aa6-29)-NH2 (peptide)
peptide: FTS[Aad]YSKYLDSRRAQDFVQWLMNT-NH2
modifications: N-terminus assumed
SMILES: CSCC[C@H](NC(=O)[C@H](CC(C)C)NC(=O)[C@H](Cc1c[nH]c2ccccc12)NC(=O)[C@H](CCC(N)=O)NC(=O)[C@@H](NC(=O)[C@H](Cc1ccccc1)NC(=O)[C@H](CC(=O)O)NC(=O)[C@H](CCC(N)=O)NC(=O)[C@H](C)NC(=O)[C@H](CCCNC(=N)N)NC(=O)[C@H](CCCNC(=N)N)NC(=O)[C@H](CO)NC(=O)[C@H](CC(=O)O)NC(=O)[C@H](CC(C)C)NC(=O)[C@H](Cc1ccc(O)cc1)NC(=O)[C@H](CCCCN)NC(=O)[C@H](CO)NC(=O)[C@H](Cc1ccc(O)cc1)NC(=O)[C@H](CCCC(=O)O)NC(=O)[C@H](CO)NC(=O)[C@@H](NC(=O)[C@@H](N)Cc1ccccc1)[C@@H](C)O)C(C)C)C(=O)N[C@@H](CC(N)=O)C(=O)N[C@H](C(N)=O)[C@@H](C)O
In the case of B1, the “cAMP (I/A)50, inhibition index” value in the experiment with human glucagon receptor [3] stood at 2360 ratio. Besides, the “cAMP IC50” value with human glucagon receptor [4] is 472 nM.

In the case of SQGTFTSEYSKYLDSRRAQDFVQFLLNT-NH2 [[desHis^1, Glu^9, Phe^25, Leu^27]Glucagon-NH2], in the experiment with human glucagon receptor [5], the “cAMP Induction EC50” value stood at 81 nM.

For the molecule SQLTFTSEYSKYLDSRRAQDFVQWLMNT-NH2 [[desHis^1, Leu^4, Glu^9] Glucagon-NH2], in the experiment with human glucagon receptor [5], the “cAMP Induction EC50” value turned out to be 318 nM and the “cAMP Inhibition IC50” value stood at 102 nM.

B2: [desHis^1, hCys^9(SO3-), Phe^25, Leu^27] Glucagon-NH2 (peptide)
peptide: SQGTFTS[Abu(4-SO3H)]YSKYLDSRRAQDFVQFLLNT-NH2
modifications: N-terminus assumed
SMILES: CC(C)C[C@H](NC(=O)[C@H](Cc1ccc(O)cc1)NC(=O)[C@H](CCCCN)NC(=O)[C@H](CO)NC(=O)[C@H](Cc1ccc(O)cc1)NC(=O)[C@H](CCS(=O)(=O)O)NC(=O)[C@H](CO)NC(=O)[C@@H](NC(=O)[C@H](Cc1ccccc1)NC(=O)[C@@H](NC(=O)CNC(=O)[C@H](CCC(N)=O)NC(=O)[C@@H](N)CO)[C@@H](C)O)[C@@H](C)O)C(=O)N[C@@H](CC(=O)O)C(=O)N[C@@H](CO)C(=O)N[C@@H](CCCNC(=N)N)C(=O)N[C@@H](CCCNC(=N)N)C(=O)N[C@@H](C)C(=O)N[C@@H](CCC(N)=O)C(=O)N[C@@H](CC(=O)O)C(=O)N[C@@H](Cc1ccccc1)C(=O)N[C@H](C(=O)N[C@@H](CCC(N)=O)C(=O)N[C@@H](Cc1ccccc1)C(=O)N[C@@H](CC(C)C)C(=O)N[C@@H](CC(C)C)C(=O)N[C@@H](CC(N)=O)C(=O)N[C@H](C(N)=O)[C@@H](C)O)C(C)C
Regarding B2, in the experiment with human glucagon receptor [5], the “cAMP Induction EC50” value was 430 nM.

C(5 kDa PEG)FTSEYSKYLDSRRAQDFVQWLMNT-NH2 [[C5(5kDaPEG), E9]Glucagon(aa5-29) -NH2]: the “IC50 (nM) (cAMP, inhibit 0.2 mM Glucagon)” value in the experiment with human glucagon receptor [2] amounted to 1610 nM.

B3: [desHis^1, desPhe^6, hCys^9(SO3-), Phe^25, Leu^27] Glucagon-NH2 (peptide)
peptide: SQGTTS[Abu(4-SO3H)]YSKYLDSRRAQDFVQFLLNT-NH2
modifications: N-terminus assumed
SMILES: CC(C)C[C@H](NC(=O)[C@H](Cc1ccc(O)cc1)NC(=O)[C@H](CCCCN)NC(=O)[C@H](CO)NC(=O)[C@H](Cc1ccc(O)cc1)NC(=O)[C@H](CCS(=O)(=O)O)NC(=O)[C@H](CO)NC(=O)[C@@H](NC(=O)[C@@H](NC(=O)CNC(=O)[C@H](CCC(N)=O)NC(=O)[C@@H](N)CO)[C@@H](C)O)[C@@H](C)O)C(=O)N[C@@H](CC(=O)O)C(=O)N[C@@H](CO)C(=O)N[C@@H](CCCNC(=N)N)C(=O)N[C@@H](CCCNC(=N)N)C(=O)N[C@@H](C)C(=O)N[C@@H](CCC(N)=O)C(=O)N[C@@H](CC(=O)O)C(=O)N[C@@H](Cc1ccccc1)C(=O)N[C@H](C(=O)N[C@@H](CCC(N)=O)C(=O)N[C@@H](Cc1ccccc1)C(=O)N[C@@H](CC(C)C)C(=O)N[C@@H](CC(C)C)C(=O)N[C@@H](CC(N)=O)C(=O)N[C@H](C(N)=O)[C@@H](C)O)C(C)C
Regarding B3, in the experiment with human glucagon receptor [5], the “cAMP Induction EC50” value came out at 3210 nM and the “cAMP Inhibition IC50” value was 9220 nM.

B4: [desHis^1, Leu^4, hCys^9(SO3-), Phe^25, Leu^27] Glucagon-NH2 (peptide)
peptide: SQLTFTS[Abu(4-SO3H)]YSKYLDSRRAQDFVQFLLNT-NH2
modifications: N-terminus assumed
SMILES: CC(C)C[C@H](NC(=O)[C@H](Cc1ccc(O)cc1)NC(=O)[C@H](CCCCN)NC(=O)[C@H](CO)NC(=O)[C@H](Cc1ccc(O)cc1)NC(=O)[C@H](CCS(=O)(=O)O)NC(=O)[C@H](CO)NC(=O)[C@@H](NC(=O)[C@H](Cc1ccccc1)NC(=O)[C@@H](NC(=O)[C@H](CC(C)C)NC(=O)[C@H](CCC(N)=O)NC(=O)[C@@H](N)CO)[C@@H](C)O)[C@@H](C)O)C(=O)N[C@@H](CC(=O)O)C(=O)N[C@@H](CO)C(=O)N[C@@H](CCCNC(=N)N)C(=O)N[C@@H](CCCNC(=N)N)C(=O)N[C@@H](C)C(=O)N[C@@H](CCC(N)=O)C(=O)N[C@@H](CC(=O)O)C(=O)N[C@@H](Cc1ccccc1)C(=O)N[C@H](C(=O)N[C@@H](CCC(N)=O)C(=O)N[C@@H](Cc1ccccc1)C(=O)N[C@@H](CC(C)C)C(=O)N[C@@H](CC(C)C)C(=O)N[C@@H](CC(N)=O)C(=O)N[C@H](C(N)=O)[C@@H](C)O)C(C)C
Take B4: in the experiment with human glucagon receptor [5], the “cAMP Induction EC50” value is 1610 nM and the “cAMP Inhibition IC50” value came to 4460 nM.

Regarding C(1.2 kDa PEG)FTSEYSKYLDSRRAQDFVQWLMNT-NH2 [[C5(1.2kDaPEG), E9]Glucagon(aa5-29) -NH2], in the experiment with human glucagon receptor [2], the “IC50 (nM) (cAMP, inhibit 0.2 mM Glucagon)” value stood at 2280 nM.

Regarding FTSDYSKYLDSRRAQDFVQWLMNT-NH2 [Glucagon(aa6-29)-NH2], the “cAMP (I/A)50, inhibition index” value with human glucagon receptor [3] came to 1730 ratio. Further, the “cAMP IC50” value with human glucagon receptor [4] came out at 346 nM.

On to FTSC(CH2CH2COOH′)YSKYLDSRRAQDFVQWLMNT-NH2 [[(CSA-2)^9]Glucagon(aa6-29)-NH2], for which the “cAMP (I/A)50, inhibition index” value with human glucagon receptor [3] came out at 580 ratio. Besides, the “cAMP IC50” value in the experiment with human glucagon receptor [4] was 116 nM.

Take FTSKYSKYLDSRRAQDFVQWLMNT-NH2 [[Lys^9]Glucagon(aa6-29)-NH2]: the “cAMP (I/A)50, inhibition index” value with human glucagon receptor [3] was determined as 1990 ratio. For the same molecule, the “cAMP IC50” value in the experiment with human glucagon receptor [4] turned out to be 398 nM.

Consider FTSC(CH2COOH)YSKYLDSRRAQDFVQWLMNT-NH2 [[(CSA-1)^9]Glucagon(aa6-29)-NH2], for which the “cAMP (I/A)50, inhibition index” value with human glucagon receptor [3] stood at 506 ratio. For the same molecule, in the experiment with human glucagon receptor [4], the “cAMP IC50” value came out at 101 nM.

Turning to [PhLac]TC(mPEG‑MAL 20 kDa)EYSKYLDSRRAQDFVQWLMNT-NH2 [[PLA6, C8(20kDaPEG), E9]Glucagon(aa6-29)-NH2], the “IC50 (nM) (cAMP, inhibit 0.2 mM Glucagon)” value in the experiment with human glucagon receptor [2] was 236 nM and 92 nM.

B5: [PLA6, D9]Glucagon(aa6-29)-COOH (peptide)
peptide: [PhLac]TSDYSKYLDSRRAQDFVQWLMNT-OH
modifications: N-terminus assumed
SMILES: CSCC[C@H](NC(=O)[C@H](CC(C)C)NC(=O)[C@H](Cc1c[nH]c2ccccc12)NC(=O)[C@H](CCC(N)=O)NC(=O)[C@@H](NC(=O)[C@H](Cc1ccccc1)NC(=O)[C@H](CC(=O)O)NC(=O)[C@H](CCC(N)=O)NC(=O)[C@H](C)NC(=O)[C@H](CCCNC(=N)N)NC(=O)[C@H](CCCNC(=N)N)NC(=O)[C@H](CO)NC(=O)[C@H](CC(=O)O)NC(=O)[C@H](CC(C)C)NC(=O)[C@H](Cc1ccc(O)cc1)NC(=O)[C@H](CCCCN)NC(=O)[C@H](CO)NC(=O)[C@H](Cc1ccc(O)cc1)NC(=O)[C@H](CC(=O)O)NC(=O)[C@H](CO)NC(=O)[C@@H](NC(=O)[C@@H](O)Cc1ccccc1)[C@@H](C)O)C(C)C)C(=O)N[C@@H](CC(N)=O)C(=O)N[C@H](C(=O)O)[C@@H](C)O
In the case of B5, the “IC50 (nM) (cAMP, inhibit Glucagon) 0.1 nM or 0.2 nM” value in the experiment with human glucagon receptor [6] is 13.2 nM.

For [PhLac]TSEYC(mPEG‑MAL 20 kDa)KYLDSRRAQDFVQWLMNT-NH2 [[PLA6, E9, C11(20kDaPEG)]Glucagon(aa6-29)-NH2], in the experiment with human glucagon receptor [2], the “IC50 (nM) (cAMP, inhibit 0.2 mM Glucagon)” value was 664 nM.

Regarding [PhLac]TSEYSKYLDSRRAQDFVC(mPEG‑MAL 20 kDa)WLMNT-NH2 [[PLA6, E9, C24(20kDaPEG)]Glucagon(aa6-29)-NH2], the “IC50 (nM) (cAMP, inhibit 0.2 mM Glucagon)” value with human glucagon receptor [2] was 126 nM.

In the case of [PhLac]TSEYSKYLDSRRAQDFVC(m‑dPEG24‑MAL)WLMNT-NH2 [[PLA6, E9 ,C24(1.2 kDaPEG)]Glucagon(aa6-29) -NH2], the “IC50 (nM) (cAMP, inhibit 0.2 mM Glucagon)” value in the experiment with human glucagon receptor [2] worked out at 18 nM.

Consider C(20 kDa PEG)FTSEYSKYLDSRRAQDFVQWLMNT-NH2 [[C5(20kDaPEG), E9]Glucagon(aa5-29) -NH2], for which the “IC50 (nM) (cAMP, inhibit 0.2 mM Glucagon)” value in the experiment with human glucagon receptor [2] worked out at 976 nM.

With C(3.4 kDa PEG)FTSEYSKYLDSRRAQDFVQWLMNT-NH2 (also: dimer: the two Cys5 joined by 3.4 kDa PEG) [3.4kDaPEG-dimer[C5, E9]Glucagon(aa5-29) -NH2], the “IC50 (nM) (cAMP, inhibit 0.2 mM Glucagon)” value with human glucagon receptor [2] was found to be 1340 nM.

Source of the values: patent publication US20120122783A1 (INDIANA UNIVERSITY RESEARCH AND TECHOLOGY, published 2012).
